The supplement of paper PMC9112550, “Optimization of the antimicrobial peptide Bac7 by deep mutational scanning” (BMC Biology, 2022)

System: Escherichia coli TOP10
Test: shrunken log2 fold change of peptide-encoding DNA abundance (4.5 h post-induction vs induction); higher = less antimicrobial activity (less host growth inhibition)
Conditions: time post-induction: 4.5 h; library: site-saturation at positions 5, 18, 19, 20
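Note: peptides expressed intracellularly from a pBAD plasmid library in pooled LB shake-flask culture, induced with 0.3% L-arabinose, DNA abundance read by NGS, three biological replicates, DESeq2 with apeglm shrinkage.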

| Sequence | shrunken log2 fold change |
| --- | --- |
| RRIRVRPPRLPRPRPRPKLHPRP | -0.237 |
| RRIRIRPPRLPRPRPRPQFVPRP | -0.229 |
| RRIRWRPPRLPRPRPRPIFEPRP | 0.308 |
| RRIRWRPPRLPRPRPRPWMVPRP | 0.0468 |
| RRIRTRPPRLPRPRPRPNCYPRP | -0.836 |
| RRIRSRPPRLPRPRPRPGKVPRP | -0.0472 |
| RRIRMRPPRLPRPRPRPDVFPRP | 0.387 |
| RRIRRRPPRLPRPRPRPVNYPRP | -0.291 |
| RRIRRRPPRLPRPRPRPEETPRP | 0.244 |
| RRIRLRPPRLPRPRPRPWYQPRP | -0.149 |
| RRIRHRPPRLPRPRPRPYPYPRP | -0.43 |
| RRIRPRPPRLPRPRPRPEAFPRP | -0.0543 |
| RRIRARPPRLPRPRPRPGTSPRP | 0.24 |
| RRIRGRPPRLPRPRPRPIGHPRP | 0.39 |
| RRIRMRPPRLPRPRPRPANKPRP | 0.178 |
| RRIRQRPPRLPRPRPRPNNEPRP | -0.885 |
| RRIRERPPRLPRPRPRPQDQPRP | 0.0272 |
| RRIRDRPPRLPRPRPRPSYNPRP | -0.285 |
| RRIRTRPPRLPRPRPRPLMCPRP | -0.151 |
| RRIRFRPPRLPRPRPRPYMLPRP | -0.61 |
| RRIRTRPPRLPRPRPRPFLFPRP | -0.303 |
| RRIRVRPPRLPRPRPRPLFKPRP | -0.262 |
| RRIRERPPRLPRPRPRPWWGPRP | -0.081 |
| RRIRRRPPRLPRPRPRPSTLPRP | -0.174 |
| RRIRPRPPRLPRPRPRPNGFPRP | -0.216 |

| Sequence | shrunken log2 fold change |
| --- | --- |
| RRIRFRPPRLPRPRPRPKGHPRP | 0.0587 |
| RRIRGRPPRLPRPRPRPDSYPRP | 0.0941 |
| RRIRERPPRLPRPRPRPAICPRP | -0.141 |
| RRIRRRPPRLPRPRPRPNPVPRP | 0.123 |
| RRIRIRPPRLPRPRPRPPCLPRP | -0.122 |
| RRIRWRPPRLPRPRPRPAYHPRP | -0.361 |
| RRIRMRPPRLPRPRPRPLEQPRP | 0.446 |
| RRIRLRPPRLPRPRPRPGNDPRP | -0.0526 |
| RRIRVRPPRLPRPRPRPMPTPRP | 0.282 |
| RRIRQRPPRLPRPRPRPCMHPRP | -0.0431 |
| RRIRYRPPRLPRPRPRPHLSPRP | -0.235 |
| RRIRHRPPRLPRPRPRPCSEPRP | 0.0248 |
| RRIRPRPPRLPRPRPRPKRTPRP | 0.0584 |
| RRIRTRPPRLPRPRPRPWNGPRP | -0.199 |
| RRIRFRPPRLPRPRPRPRRRPRP | 0.658 |
| RRIRYRPPRLPRPRPRPEDYPRP | -0.00116 |
| RRIRPRPPRLPRPRPRPKWAPRP | 0.0222 |
| RRIRCRPPRLPRPRPRPECKPRP | -0.255 |
| RRIRRRPPRLPRPRPRPQLFPRP | 2.21 |
| RRIRKRPPRLPRPRPRPWWLPRP | 0.252 |
| RRIRIRPPRLPRPRPRPPSSPRP | -0.0293 |
| RRIRTRPPRLPRPRPRPTADPRP | 0.351 |
| RRIRRRPPRLPRPRPRPAPVPRP | 1.06 |
| RRIRRRPPRLPRPRPRPHPDPRP | 0.474 |
| RRIRDRPPRLPRPRPRPKCQPRP | -0.00187 |

| Sequence | shrunken log2 fold change |
| --- | --- |
| RRIRTRPPRLPRPRPRPMIKPRP | -0.103 |
| RRIRIRPPRLPRPRPRPPRMPRP | 0.21 |
| RRIRRRPPRLPRPRPRPIYFPRP | 0.124 |
| RRIRQRPPRLPRPRPRPVDSPRP | 0.0997 |
| RRIRFRPPRLPRPRPRPYMHPRP | -0.72 |
| RRIRYRPPRLPRPRPRPHHDPRP | -0.917 |
| RRIRERPPRLPRPRPRPDVCPRP | -0.239 |
| RRIRHRPPRLPRPRPRPCHRPRP | -0.126 |
| RRIRWRPPRLPRPRPRPTWDPRP | 0.395 |
| RRIRTRPPRLPRPRPRPCVDPRP | 0.0267 |
| RRIRGRPPRLPRPRPRPVSRPRP | 0.491 |
| RRIRVRPPRLPRPRPRPILWPRP | 0.0127 |
| RRIRARPPRLPRPRPRPVNGPRP | -0.133 |
| RRIRARPPRLPRPRPRPFAPPRP | 0.61 |
| RRIRGRPPRLPRPRPRPNDKPRP | 0.342 |
| RRIRMRPPRLPRPRPRPSCVPRP | 0.22 |
| RRIRLRPPRLPRPRPRPRTPPRP | 0.376 |
| RRIRERPPRLPRPRPRPFDNPRP | 3.45 |
| RRIRSRPPRLPRPRPRPSKAPRP | -0.0678 |
| RRIRRRPPRLPRPRPRPGCMPRP | 0.835 |
| RRIRFRPPRLPRPRPRPVMKPRP | -0.189 |
| RRIRARPPRLPRPRPRPESQPRP | 0.454 |
| RRIRDRPPRLPRPRPRPYAQPRP | -0.156 |
| RRIRCRPPRLPRPRPRPAMIPRP | 0.111 |
| RRIRKRPPRLPRPRPRPTSRPRP | 0.159 |

| Sequence | shrunken log2 fold change |
| --- | --- |
| RRIRARPPRLPRPRPRPRNQPRP | -0.012 |
| RRIRPRPPRLPRPRPRPQDRPRP | -0.0277 |
| RRIRNRPPRLPRPRPRPNYLPRP | -0.354 |
| RRIRIRPPRLPRPRPRPVLNPRP | -0.492 |
| RRIRVRPPRLPRPRPRPLHYPRP | -0.088 |
| RRIRPRPPRLPRPRPRPMNNPRP | -0.916 |
| RRIRWRPPRLPRPRPRPNDQPRP | 0.0201 |
| RRIRSRPPRLPRPRPRPKANPRP | 0.126 |
| RRIRMRPPRLPRPRPRPMRQPRP | -0.0415 |
| RRIRQRPPRLPRPRPRPHKKPRP | -0.215 |
| RRIRLRPPRLPRPRPRPQYMPRP | -0.0107 |
| RRIRGRPPRLPRPRPRPAALPRP | 0.912 |
| RRIRKRPPRLPRPRPRPLCRPRP | 0.392 |
| RRIRCRPPRLPRPRPRPFQWPRP | -0.0999 |
| RRIRNRPPRLPRPRPRPYRKPRP | -0.0658 |
| RRIRFRPPRLPRPRPRPIHKPRP | -0.775 |
| RRIRARPPRLPRPRPRPPNCPRP | 0.354 |
| RRIRTRPPRLPRPRPRPHHMPRP | -0.321 |
| RRIRSRPPRLPRPRPRPFVVPRP | -0.0648 |
| RRIRDRPPRLPRPRPRPYGAPRP | 0.00308 |
| RRIRWRPPRLPRPRPRPAQFPRP | 0.248 |
| RRIRQRPPRLPRPRPRPTEWPRP | 0.446 |
| RRIRKRPPRLPRPRPRPIHAPRP | -0.000921 |
| RRIRTRPPRLPRPRPRPLVPPRP | 0.193 |
| RRIRLRPPRLPRPRPRPVRNPRP | 0.0234 |

| Sequence | shrunken log2 fold change |
| --- | --- |
| RRIRQRPPRLPRPRPRPQKAPRP | -0.109 |
| RRIRVRPPRLPRPRPRPSMEPRP | -0.159 |
| RRIRNRPPRLPRPRPRPGFFPRP | 0.263 |
| RRIRMRPPRLPRPRPRPQGNPRP | -0.0324 |
| RRIRWRPPRLPRPRPRPGSKPRP | 0.0611 |
| RRIRDRPPRLPRPRPRPAWSPRP | 0.168 |
| RRIRYRPPRLPRPRPRPYNCPRP | -0.0167 |
| RRIRDRPPRLPRPRPRPMQVPRP | 0.0758 |
| RRIRPRPPRLPRPRPRPGEGPRP | 0.349 |
| RRIRSRPPRLPRPRPRPFEEPRP | -0.345 |
| RRIRMRPPRLPRPRPRPARCPRP | 1.16 |
| RRIRPRPPRLPRPRPRPGTVPRP | -0.182 |
| RRIRERPPRLPRPRPRPQWEPRP | -0.0702 |
| RRIRMRPPRLPRPRPRPPEDPRP | 1.66 |
| RRIRIRPPRLPRPRPRPGAGPRP | 0.29 |
| RRIRYRPPRLPRPRPRPYQEPRP | -0.00233 |
| RRIRERPPRLPRPRPRPQTGPRP | -0.0945 |
| RRIRCRPPRLPRPRPRPEMNPRP | -0.036 |
| RRIRRRPPRLPRPRPRPNWSPRP | -0.0147 |
| RRIRVRPPRLPRPRPRPHCKPRP | -0.299 |
| RRIRYRPPRLPRPRPRPSQQPRP | 0.102 |
| RRIRQRPPRLPRPRPRPEAEPRP | 0.302 |
| RRIRNRPPRLPRPRPRPWYPPRP | -0.215 |
| RRIRKRPPRLPRPRPRPCRGPRP | -0.115 |
| RRIRCRPPRLPRPRPRPVKSPRP | 0.967 |

| Sequence | shrunken log2 fold change |
| --- | --- |
| RRIRERPPRLPRPRPRPHLPPRP | -0.136 |
| RRIRPRPPRLPRPRPRPIAKPRP | 0.0454 |
| RRIRVRPPRLPRPRPRPNIRPRP | -0.664 |
| RRIRYRPPRLPRPRPRPRLVPRP | -0.0287 |
| RRIRCRPPRLPRPRPRPERFPRP | 0.00138 |
| RRIRLRPPRLPRPRPRPESNPRP | 0.0589 |
| RRIRMRPPRLPRPRPRPERPPRP | 0.338 |
| RRIRHRPPRLPRPRPRPEEPPRP | 0.0179 |
| RRIRLRPPRLPRPRPRPHHWPRP | -0.124 |
| RRIRVRPPRLPRPRPRPELGPRP | 0.308 |
| RRIRSRPPRLPRPRPRPSPFPRP | -0.191 |
| RRIRSRPPRLPRPRPRPFKWPRP | -0.24 |
| RRIRQRPPRLPRPRPRPKLCPRP | 0.0303 |
| RRIRNRPPRLPRPRPRPWWMPRP | -0.0246 |
| RRIRIRPPRLPRPRPRPFIIPRP | -1.76 |
| RRIRTRPPRLPRPRPRPKYSPRP | -0.413 |
| RRIRDRPPRLPRPRPRPTVNPRP | 0.0689 |
| RRIRYRPPRLPRPRPRPASSPRP | -0.0244 |
| RRIRFRPPRLPRPRPRPMFEPRP | -0.0233 |
| RRIRPRPPRLPRPRPRPSKIPRP | -0.129 |
| RRIRMRPPRLPRPRPRPQSFPRP | -0.199 |
| RRIRRRPPRLPRPRPRPMQMPRP | 0.54 |
| RRIRRRPPRLPRPRPRPVEFPRP | 0.0107 |
| RRIRGRPPRLPRPRPRPFMIPRP | -0.0383 |
| RRIRERPPRLPRPRPRPFDLPRP | -0.504 |
